Test results: article PMC4577212, “X-Ray Structure and Mutagenesis Studies of the N-Isopropylammelide Isopropylaminohydrolase, AtzC” (PLoS ONE, 2015)

Assays:
Nc1nc(O)nc(O)n1 [1] = system: T1, Nc1nc(O)nc(O)n1; test: purified protein; format: biochemical, Pseudomonas sp. ADP; conditions: 200 mM sodium phosphate pH 7.5, glycerol, 301 K, 28.0 °C
T1 construct: full length, N-terminal His-tag (pETCC2, from pET14b), expressed in E. coli BL21(DE3); tag cut with thrombin for crystals; homotetramer ~210 kDa; Zn enzyme

Nc1nc(O)nc(O)n1 [2] = test: purified protein; conditions: 200 mM sodium phosphate pH 7.5, glycerol, 301 K, 28.0 °C

| Substance | Km (Nc1nc(O)nc(O)n1 [1]) | kcat (Nc1nc(O)nc(O)n1 [1]) | kcat/Km (Nc1nc(O)nc(O)n1 [1]) | Km (Nc1nc(O)nc(O)n1 [2]) |
| --- | --- | --- | --- | --- |
| AtzC (N-isopropylammelide isopropylaminohydrolase) (Pseudomonas sp. ADP; D188A) | 2200 ± 200 µM | 106 ± 11.4 s⁻¹ | 49000 M⁻¹ s⁻¹ | – |
| AtzC (N-isopropylammelide isopropylaminohydrolase) (Pseudomonas sp. ADP; D188N) | – | – | – | 1900 ± 500 µM |
| AtzC (N-isopropylammelide isopropylaminohydrolase) (Pseudomonas sp. ADP; D303N) | 6100 ± 600 µM | 90.4 ± 8.9 s⁻¹ | 15000 M⁻¹ s⁻¹ | – |
| AtzC (N-isopropylammelide isopropylaminohydrolase) (Pseudomonas sp. ADP; H219A) | 1600 ± 400 µM | 16.8 ± 4 s⁻¹ | 11000 M⁻¹ s⁻¹ | – |
| AtzC (N-isopropylammelide isopropylaminohydrolase) (Pseudomonas sp. ADP; K65A) | 6100 ± 600 µM | 778 ± 79.7 s⁻¹ | 130000 M⁻¹ s⁻¹ | – |
| AtzC (N-isopropylammelide isopropylaminohydrolase) (Pseudomonas sp. ADP; K65R) | 2400 ± 300 µM | 332 ± 34.3 s⁻¹ | 140000 M⁻¹ s⁻¹ | – |
| AtzC (N-isopropylammelide isopropylaminohydrolase) (Pseudomonas sp. ADP; N304A) | 4200 ± 200 µM | 29.3 ± 1.7 s⁻¹ | 7000 M⁻¹ s⁻¹ | – |
| AtzC (N-isopropylammelide isopropylaminohydrolase) (Pseudomonas sp. ADP; N304D) | 25000 ± 4500 µM | 189 ± 34 s⁻¹ | 7600 M⁻¹ s⁻¹ | – |
| AtzC (N-isopropylammelide isopropylaminohydrolase) (Pseudomonas sp. ADP; Q160A) | 1800 ± 300 µM | 23 ± 3.5 s⁻¹ | 13000 M⁻¹ s⁻¹ | – |
| AtzC (N-isopropylammelide isopropylaminohydrolase) (Pseudomonas sp. ADP; Q160E) | 1300 ± 100 µM | 10.4 ± 0.5 s⁻¹ | 8100 M⁻¹ s⁻¹ | – |
